Test results reported in patent publication US20220396617A1 (BEIJING MABWORKS BIOTECH, published 2022).
Where two headings read alike, the source gives them in different places.

T1: TIGIT (ECD)-hFc (human, UniProt Q495A1 22-141)
T1 construct: bought protein; also called recombinant human TIGIT (ECD)-hFc; Cat #: 10917-H02H, Sino Biological; not shown: human Fc (hFc) of the bought protein
T1 sequence: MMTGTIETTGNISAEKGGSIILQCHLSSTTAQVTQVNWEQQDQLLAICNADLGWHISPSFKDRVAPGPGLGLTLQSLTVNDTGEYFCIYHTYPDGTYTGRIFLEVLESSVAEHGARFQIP

T2: human TIGIT expressed on HEK293A cells (human, UniProt Q495A1 22-244)
T2 construct: also called HEK293A/human TIGIT cells
T2 sequence: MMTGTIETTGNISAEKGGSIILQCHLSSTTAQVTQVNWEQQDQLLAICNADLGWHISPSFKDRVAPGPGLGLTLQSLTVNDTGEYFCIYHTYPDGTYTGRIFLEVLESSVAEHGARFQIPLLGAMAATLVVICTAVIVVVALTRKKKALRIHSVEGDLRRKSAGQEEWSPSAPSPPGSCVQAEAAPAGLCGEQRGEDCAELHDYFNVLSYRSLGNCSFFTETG

T3: human TIGIT (ECD)-his (human, UniProt Q495A1 22-141)
T3 construct: bought protein; also called hTIGIT(ECD)-his; Cat #: 10917-H08H, Sino Biological; not shown: his tag of the bought protein
T3 sequence: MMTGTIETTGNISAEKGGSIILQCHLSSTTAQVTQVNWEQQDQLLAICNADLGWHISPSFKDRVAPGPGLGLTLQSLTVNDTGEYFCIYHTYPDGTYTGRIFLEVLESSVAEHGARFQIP


Tests used:
[1] = target: T1, TIGIT (ECD)-hFc; experiment: FACS blocking assay (protocol of Example 7): serially diluted antibody pre-incubated with TIGIT (ECD)-hFc, then binding of TIGIT (ECD)-hFc to A549/human PVR cells measured; blocked ligand: human PVR
Description: (§1) After incubated at 4° C. for 1 h, plates were washed 3 times with PBST and then added with PE coupled Goat Anti-human IgG (Cat #: PAI-86078, Thermofisher, US) diluted 500×. After incubation at 4° C. for 1 h, the plates were washed with PBST for 3 times and then cell fluorescence was monitored using a FACS machine (BD).

[2] = target: T2, human TIGIT expressed on HEK293A cells; experiment: FACS, HEK293A/human TIGIT cells, serially diluted antibody (protocol of Example 5) [A]
Description: (§2) After incubated at 4° C. for 1 h, plates were washed 3 times with PBST. Then, APC coupled Goat Anti-Mouse IgG (Cat #: 405308, BioLegend, US) diluted 500x was added to the plates. After incubation at 4° C. for 1 h, the plates were washed with PBS for 3 times and then cell fluorescence was monitored using a FACS machine (BD).

[3] = target: T4, monkey TIGIT expressed on HEK293A cells (monkey); experiment: FACS, HEK293A/monkey TIGIT cells, serially diluted antibody (protocol of Example 5) [B]
T4 construct: also called HEK293A/monkey TIGIT cells
T4 sequence (chain, as listed by the source limits assumed): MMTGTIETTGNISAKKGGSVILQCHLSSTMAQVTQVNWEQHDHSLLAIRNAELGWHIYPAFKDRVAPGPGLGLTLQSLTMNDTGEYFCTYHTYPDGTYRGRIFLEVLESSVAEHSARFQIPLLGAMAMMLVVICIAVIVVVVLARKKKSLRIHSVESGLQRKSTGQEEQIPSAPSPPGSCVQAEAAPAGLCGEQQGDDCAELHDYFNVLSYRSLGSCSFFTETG
Description: as §2

[4] = target: T2, human TIGIT expressed on HEK293A cells; experiment: FACS, HEK293A/human TIGIT cells, serially diluted antibody (protocol of Example 5) [A]; remark: listed apart in the source
[5] = target: T2, human TIGIT expressed on HEK293A cells; experiment: FACS on HEK293A/human TIGIT cells
Description: as §2

[6] = target: T4, monkey TIGIT expressed on HEK293A cells; experiment: FACS on HEK293A/monkey TIGIT cells
Description: as §2

[7] = target: T1, TIGIT (ECD)-hFc; experiment: FACS blocking assay: antibody preincubated with TIGIT (ECD)-hFc, binding to A549/human PVR cells
Description: as §1

[8] = target: T3, human TIGIT (ECD)-his; experiment: ELISA, coated human TIGIT (ECD)-his (table head says FACS)
Description: Plates were washed for 3 times with PBST (PBS+0.05% Tween20), added with Goat-anti-mouse IgG-HRP (Cat #: A9309-1 ml, Sigma, US) diluted 5000×, and incubated for 1 h at room temperature. Plates were incubated with freshly prepared Ultra-TMB (Cat #: 555214, BD, US) for 5 minutes at room temperature for color development.

[9] = target: T5, monkey TIGIT (ECD)-hFc (monkey (cynomolgus)); experiment: SPR (BIAcore 8K), monkey TIGIT (ECD)-hFc on CM5 chip, antibody injected
T5 construct: bought protein; also called cynoTIGIT(ECD)-hFc; cynomolgus TIGIT (ECD)-hFc; not shown: human Fc (hFc) of the bought protein

[10] = target: T2, human TIGIT expressed on HEK293A cells; experiment: cell-based or functional assay
[11] = target: T5, monkey TIGIT (ECD)-hFc; experiment: ELISA, coated monkey TIGIT (ECD)-hFc (table head says FACS)

| IC50 (read off the curve) [1] [µg/mL] | EC50 (read off the curve) [2] [µg/mL] | EC50 (read off the curve) [3] [µg/mL] | EC50 (read off the curve) [4] [µg/mL] | EC50 [5] [nM] | EC50 [6] [nM] | EC50 [7] [nM] | EC50 [8] [nM] | Kd [9] [nM] | NK92-mediated ADCC against HEK293A/human TIGIT cells, EC50 [10] [nM] | EC50 [11] [nM] | Binder |
| --- | --- | --- | --- | --- | --- | --- | --- | --- | --- | --- | --- |
| ~3 | ~0.2 | ~0.5 | ~0.2 |  |  |  |  |  |  |  | chimeric 149G11 (antibody, human IgG1, kappa, V domains shown, mouse variable regions with human IgG1/kappa constant regions; also called chimeric antibody 149G11) VH: QVQLQQSGTELVRPGTSVKMSCRTAGYTFTNYWIHWVKQRPGHGLEWIGDIYPGGRYSNYNEKFRGKATLTADTSSSTAYMELSSLTSEDSAIYYCARYYESAMDFWGQGTSVTVSS VL: DIVMSQSPSSLAVSVGEKVTVNCKSSQNLLYNSNQKSYLAWFQQKPGQSPKLLIYWASTRESGVPDRFTGSGSGTDFTLTISSVKAEDLAVYYCQQYYNYPFTFGSGTKLEIKR |
|  |  |  |  | 0.1 | 1.2 | 41 | 0.86 |  |  |  | mouse 149G11 (antibody, V domains shown, also called antibody from clone 149G11) VH: QVQLQQSGTELVRPGTSVKMSCRTAGYTFTNYWIHWVKQRPGHGLEWIGDIYPGGRYSNYNEKFRGKATLTADTSSSTAYMELSSLTSEDSAIYYCARYYESAMDFWGQGTSVTVSS VL: DIVMSQSPSSLAVSVGEKVTVNCKSSQNLLYNSNQKSYLAWFQQKPGQSPKLLIYWASTRESGVPDRFTGSGSGTDFTLTISSVKAEDLAVYYCQQYYNYPFTFGSGTKLEIK |
| ~3 | ~0.2 | ~0.2 |  |  |  |  |  |  |  |  | chimeric 70E11 (antibody, human IgG1, kappa, V domains shown, mouse variable regions with human IgG1/kappa constant regions; also called chimeric antibody 70E11) VH: QVQLQQPGTDLVKPGASVRMSCKASGYTFTSYNVHWVKQTPGQGLEWIGTIYPGNLATSYNQKFKGKATLTADKSSTTAYMQLSSLTSEDSAVYYCARSGTMDYWGQGTTLTVSS VL: ENVVTQSPAIMSASPGEKVTMTCRASSSISSTYLHWYQQKSGASPKLWIYNTQNLASGVPARISGSGSGTSYSLTISSVEAEDAATYYCQQFGGYPLITFGAGTKLELKR |
|  |  |  |  | 0.56 | 0.39 | 43 | 0.82 |  |  |  | mouse 70E11 (antibody, V domains shown, also called antibody from clone 70E11) VH: QVQLQQPGTDLVKPGASVRMSCKASGYTFTSYNVHWVKQTPGQGLEWIGTIYPGNLATSYNQKFKGKATLTADKSSTTAYMQLSSLTSEDSAVYYCARSGTMDYWGQGTTLTVSS VL: ENVVTQSPAIMSASPGEKVTMTCRASSSISSTYLHWYQQKSGASPKLWIYNTQNLASGVPARISGSGSGTSYSLTISSVEAEDAATYYCQQFGGYPLITFGAGTKLELK |
|  | ~0.2 | ~0.2 |  | 0.44 | 0.9 |  |  | 0.0622 | 0.0465 | 0.14 | Tiragolumab (antibody, V domains shown) VH: EVQLQQSGPGLVKPSQTLSLTCAISGDSVSSNSAAWNWIRQSPSRGLEWLGKTYYRFKWYSDYAVSVKGRITINPDTSKNQFSLQLNSVTPEDTAVFYCTRESTTYDLLAGPFDYWGQGTLVTVSS VL: not shown |
